In patent publication US20240368250A1 (Ablynx, published 2024):
Substitutions are numbered along the chain they refer to. In names and notes the source's numbering stands.

Legend:
[1] = biological target: T1, Human FcRn (biotinylated human FcRn) (human, UniProt P61769 21-119); assay: SPR Biacore 8K+, biotinylated hFcRn on SA chip (~700 RU), pH 6.0, bivalent analyte fit
T1 construct: Biotinylated human FcRn captured on a Series S Sensor Chip SA; also called human neonatal Fc receptor; hFcRn

[2] = biological target: T1, Human FcRn (biotinylated human FcRn); assay: SPR Biacore 8K+, biotinylated hFcRn on SA chip (~700 RU), pH 6.0, bivalent analyte fit (KD1)
[3] = biological target: T1, Human FcRn (biotinylated human FcRn); assay: SPR Biacore 8K+, biotinylated hFcRn on SA chip (~700 RU), pH 6.0, bivalent analyte fit (ka1)
[4] = biological target: T1, Human FcRn (biotinylated human FcRn); assay: SPR Biacore 8K+, biotinylated hFcRn on SA chip (~700 RU), pH 6.0, bivalent analyte fit (kd1)
[5] = biological target: T2, Human serum albumin (HSA; Sigma-Aldrich Cat No. A8763) (human, UniProt P02768 25-609); assay: SPR Biacore 8K+, HSA on CM5 chip, pH 6.0, 1:1 fit
[6] = biological target: T2, Human serum albumin (HSA; Sigma-Aldrich …); assay: SPR Biacore 8K+, HSA on CM5 chip, pH 7.4, 1:1 fit
[7] = biological target: T3, Mouse serum albumin (MSA; Albumin Bioscience Cat No. 2601) (mouse, UniProt P07724 25-608); assay: SPR Biacore 8K+, MSA on CM5 chip, pH 6.0, 1:1 fit
[8] = biological target: T3, Mouse serum albumin (MSA; Albumin …); assay: SPR Biacore 8K+, MSA on CM5 chip, pH 7.4, 1:1 fit
[9] = biological target: T1, Human FcRn (biotinylated human FcRn); assay: SPR Biacore 8K+, biotinylated hFcRn on SA chip (~600 RU), pH 6.0, bivalent analyte fit
[10] = biological target: T1, Human FcRn (biotinylated human FcRn); assay: SPR Biacore 8K+, biotinylated hFcRn on SA chip (~1000-2000 RU), pH 6.0, no HSA, 1:1 fit
[11] = biological target: T1, Human FcRn (biotinylated human FcRn); assay: SPR Biacore 8K+, biotinylated hFcRn on SA chip (~600 RU), pH 6.0, bivalent analyte fit (KD1)
[12] = biological target: T1, Human FcRn (biotinylated human FcRn); assay: SPR Biacore 8K+, biotinylated hFcRn on SA chip (~600 RU), pH 6.0, bivalent analyte fit (ka1)
[13] = biological target: T1, Human FcRn (biotinylated human FcRn); assay: SPR Biacore 8K+, biotinylated hFcRn on SA chip (~600 RU), pH 6.0, bivalent analyte fit (kd1)
[14] = biological target: T1, Human FcRn (biotinylated human FcRn); assay: SPR Biacore 8K+, biotinylated hFcRn on SA chip (~1000-2000 RU), pH 6.0, no HSA, bivalent analyte fit
[15] = biological target: T1, Human FcRn (biotinylated human FcRn); assay: SPR Biacore 8K+, biotinylated hFcRn on SA chip (~1000-2000 RU), pH 6.0, no HSA, bivalent analyte fit (KD1)
[16] = biological target: T1, Human FcRn (biotinylated human FcRn); assay: SPR Biacore 8K+, biotinylated hFcRn on SA chip (~1000-2000 RU), pH 6.0, no HSA, bivalent analyte fit (ka1)
[17] = biological target: T1, Human FcRn (biotinylated human FcRn); assay: SPR Biacore 8K+, biotinylated hFcRn on SA chip (~1000-2000 RU), pH 6.0, no HSA, bivalent analyte fit (kd1)
[18] = biological target: T1, Human FcRn (biotinylated human FcRn); assay: SPR Biacore 8K+, biotinylated hFcRn on SA chip (~1000-2000 RU), pH 6.0, with 30 uM HSA, bivalent analyte fit
[19] = biological target: T1, Human FcRn (biotinylated human FcRn); assay: SPR Biacore 8K+, biotinylated hFcRn on SA chip (~1000-2000 RU), pH 6.0, with 30 uM HSA, bivalent analyte fit (KD1)
[20] = biological target: T1, Human FcRn (biotinylated human FcRn); assay: SPR Biacore 8K+, biotinylated hFcRn on SA chip (~1000-2000 RU), pH 6.0, with 30 uM HSA, bivalent analyte fit (ka1)
[21] = biological target: T1, Human FcRn (biotinylated human FcRn); assay: SPR Biacore 8K+, biotinylated hFcRn on SA chip (~1000-2000 RU), pH 6.0, with 30 uM HSA, bivalent analyte fit (kd1)

B1: T-0263-00_TP117 (antibody, human IgG1, kappa)
heavy 1: not shown
heavy 2: EVQLVESGGGLVQPGGSLRLSCAASGFNIRDTYIHWVRQAPGKGLEWVARIYPTQGYTRYADSVKGRFTISADTSKNTAYLQMNSLRAEDTAVYYCSRWGGEGFYAMDYWGQGTLVTVSSASTKGPSVFPLAPSSKSTSGGTAALGCLVKDYFPEPVTVSWNSGALTSGVHTFPAVLQSSGLYSLSSVVTVPSSSLGTQTYICNVNHKPSNTKVDKKVEPKSCDKTHTCPPCPAPELLGGPSVFLFPPKPKDTLMISRTPEVTCVVVDVSHEDPEVKFNWYVDGVEVHNAKTKPREEQYNSTYRVVSVLTVLHQDWLNGKEYKCKVSNKALPAPIEKTISKAKGQPREPQVCTLPPSRDELTKNQVSLSCAVKGFYPSDIAVEWESNGQPENNYKTTPPVLDSDGSFFLVSKLTVDKSRWQQGNVFSCSVMHEALHNRFTQKSLSLSPG
light: not shown
notes: Full-length IgG1 with knob-in-hole mutations (hole chain H435R, Y436F), no C-terminal fusion
ka2 [1]: 3.1e-05 1/RUs
kd2 [1]: 0.001 s⁻¹
Kd [2]: 1300 nM
kon [3]: 120000 M⁻¹ s⁻¹
koff [4]: 0.16 s⁻¹

B2: T-0263-00_TP118 (antibody, human IgG1, kappa)
heavy 1: not shown
heavy 2: B1 heavy 2
light: not shown
notes: Full-length IgG1 knob-in-hole with a C-terminal irrelevant ISVD (9GS) on chain 1; control of TP121
ka2 [1]: 2.3e-05 1/RUs
kd2 [1]: 0.00054 s⁻¹
Kd [2]: 1200 nM
kon [3]: 120000 M⁻¹ s⁻¹
koff [4]: 0.15 s⁻¹

B3: TP009 (Fc fusion)
chain 1: DVQLVESGGGLVQPGGSLRLSCAASGLTFSTNPMYWYRQAPGKQRELVASISSRGITNYADSVKGRFTISRDNSKNTVYLQMNSLRPEDTAVYYCRLASLSSGTVYWGQGTLVTVSSDKTHTCPPCPAPEAAGGPSVFLFPPKPKDTLMISRTPEVTCVVVDVSQEDPEVQFNWYVDGVEVHNAKTKPREEQFNSTYRVVSVLTVLHQDWLNGKEYKCKVSNKGLPSSIEKTISKAKGQPREPQVYTLPPCQEEMTKNQVSLWCLVKGFYPSDIAVEWESNGQPENNYKTTPPVLDSDGSFFLYSKLTVDKSRWQEGNVFSCSVMHEALHNHYTQKSLSLSLG
chain 2: DVQLVESGGGVVQPGGSLRLSCAASGFTFRSFGMSWVRQAPGKGPEWVSSISGSGSDTLYADSVKGRFTISRDNSKNTLYLQMNSLRPEDTALYYCTIGGSLSRSSQGTLVTVSSDKTHTCPPCPAPEAAGGPSVFLFPPKPKDTLMISRTPEVTCVVVDVSQEDPEVQFNWYVDGVEVHNAKTKPREEQFNSTYRVVSVLTVLHQDWLNGKEYKCKVSNKGLPSSIEKTISKAKGQPREPQVCTLPPSQEEMTKNQVSLSCAVKGFYPSDIAVEWESNGQPENNYKTTPPVLDSDGSFFLVSKLTVDKSRWQEGNVFSCSVMHEALHNHYTQKSLSLSLG
notes: IgG4 FALA Fc (knob-in-hole); irrelevant ISVD N-terminal on chain 1, ALB23002 N-terminal on chain 2
Kd [5]: 2.7 nM
koff [5]: 0.00037 s⁻¹
kon [5]: 140000 M⁻¹ s⁻¹
Kd [6]: 6.7 nM
koff [6]: 0.0005 s⁻¹
kon [6]: 75000 M⁻¹ s⁻¹
Kd [7]: 13 nM
koff [7]: 0.002 s⁻¹
kon [7]: 160000 M⁻¹ s⁻¹
Kd [8]: 21 nM
koff [8]: 0.0026 s⁻¹
kon [8]: 130000 M⁻¹ s⁻¹
ka2 [9]: 0.917 1/RUs
kd2 [9]: 10.2 s⁻¹
Kd [10]: 3 nM
koff [10]: 0.0067 s⁻¹
kon [10]: 2.3e+06 M⁻¹ s⁻¹
Kd [11]: 15.1 nM
kon [12]: 22800 M⁻¹ s⁻¹
koff [13]: 0.000344 s⁻¹
ka2 [14]: 0.0013 1/RUs
kd2 [14]: 0.018 s⁻¹
Kd [15]: 150 nM
kon [16]: 240000 M⁻¹ s⁻¹
koff [17]: 0.037 s⁻¹
ka2 [18]: 0.0074 1/RUs
kd2 [18]: 0.095 s⁻¹
Kd [19]: 23 nM
kon [20]: 75000 M⁻¹ s⁻¹
koff [21]: 0.0017 s⁻¹

B4: TP003 (Fc fusion)
chain 1: B3 chain 1
chain 2: B3 chain 1 with Y246C, C251S, W263S, L265A, Y304V
notes: IgG4 FALA Fc (knob-in-hole) with two N-terminal non-targeting ISVDs; also called control ISVD-Fc construct
ka2 [9]: 0.011 1/RUs
kd2 [9]: 0.0329 s⁻¹
Kd [10]: 3.6 nM
koff [10]: 0.0017 s⁻¹
kon [10]: 460000 M⁻¹ s⁻¹
Kd [11]: 3.09 nM
kon [12]: 77000 M⁻¹ s⁻¹
koff [13]: 0.000238 s⁻¹
ka2 [14]: 0.15 1/RUs
kd2 [14]: 2.4 s⁻¹
Kd [15]: 39 nM
kon [16]: 250000 M⁻¹ s⁻¹
koff [17]: 0.0098 s⁻¹
ka2 [18]: 100 1/RUs
kd2 [18]: 1900 s⁻¹
Kd [19]: 77 nM
kon [20]: 470000 M⁻¹ s⁻¹
koff [21]: 0.036 s⁻¹

B5: TP008 (Fc fusion)
chain 1: DVQLVESGGGLVQPGGSLRLSCAASGLTFSTNPMYWYRQAPGKQRELVASISSRGITNYADSVKGRFTISRDNSKNTVYLQMNSLRPEDTAVYYCRLASLSSGTVYWGQGTLVTVSSDKTHTCPPCPAPEAAGGPSVFLFPPKPKDTLMISRTPEVTCVVVDVSQEDPEVQFNWYVDGVEVHNAKTKPREEQFNSTYRVVSVLTVLHQDWLNGKEYKCKVSNKGLPSSIEKTISKAKGQPREPQVYTLPPCQEEMTKNQVSLWCLVKGFYPSDIAVEWESNGQPENNYKTTPPVLDSDGSFFLYSKLTVDKSRWQEGNVFSCSVMHEALHNHYTQKSLSLSLGGGGGSGGGGSGGGGSGGGGSGGGGSGGGGSGGGGSEVQLVESGGGLVQPGGSLRLSCAASGLTFSTNPMYWYRQAPGKQRELVASISSRGITNYADSVKGRFTISRDNSKNTVYLQMNSLRPEDTAVYYCRLASLSSGTVYWGQGTLVTVSS
chain 2: DKTHTCPPCPAPEAAGGPSVFLFPPKPKDTLMISRTPEVTCVVVDVSQEDPEVQFNWYVDGVEVHNAKTKPREEQFNSTYRVVSVLTVLHQDWLNGKEYKCKVSNKGLPSSIEKTISKAKGQPREPQVCTLPPSQEEMTKNQVSLSCAVKGFYPSDIAVEWESNGQPENNYKTTPPVLDSDGSFFLVSKLTVDKSRWQEGNVFSCSVMHEALHNHYTQKSLSLSLG
notes: IgG4 FALA Fc knob-in-hole
ka2 [9]: 28.7 1/RUs
kd2 [9]: 51.1 s⁻¹
Kd [10]: 4.3 nM
koff [10]: 0.0086 s⁻¹
kon [10]: 2e+06 M⁻¹ s⁻¹
Kd [11]: 6.1 nM
kon [12]: 3.25e+06 M⁻¹ s⁻¹
koff [13]: 0.0198 s⁻¹
ka2 [14]: 6.2e-05 1/RUs
kd2 [14]: 0.0021 s⁻¹
Kd [15]: 75 nM
kon [16]: 270000 M⁻¹ s⁻¹
koff [17]: 0.02 s⁻¹
ka2 [18]: 7.1 1/RUs
kd2 [18]: 120 s⁻¹
Kd [19]: 190 nM
kon [20]: 260000 M⁻¹ s⁻¹
koff [21]: 0.047 s⁻¹
